Laboratory results published in article PMC3360035 (PLoS ONE, 2012).

Molecular target: Human γD-crystallin I90F (human, UniProt P07320 1-174, I90F)
Assay: cell-based or functional assay

B1: αB-crystallin, wild type (natural protein, UniProt P02511 1-175, looked up)
chain: MDIAIHHPWIRRPFFPFHSPSRLFDQFFGEHLLESDLFPTSTSLSPFYLRPPSFLRAPSWFDTGLSEMRLEKDRFSVNLDVKHFSPEELKVKVLGDVIEVHGKHEERQDEHGFISREFHRKYRIPADVDPLTITSSLSSDGVLTVNGPRKQVSGPERTIPITREEKPAVTAAPKK
  suppression of aggregation on dilution out of 5 M GdnHCl (from maximum A350), αB in 5-fold molar excess: 70%
